According to the supplement of paper PMC9170038:

System: MS2 coat protein
Assay: apparent KD of MS2 coat protein; designed switch direction (-1 OFF switch, 1 ON switch): -1; higher = weaker reporter binding
In short: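 The buffer was Tris-HCl pH 7.5 with KCl, MgCl2, BSA, DTT, tRNA and Tween-20. In it, SNAP-549-labelled MS2 coat protein was titrated in doubling steps from 0.7 or 1.5 nM to 3 µM over chip-bound RNA switches transcribed by stalled E. coli RNA polymerase on Illumina chips. Apparent KD is the per-design median over clusters of curve fits to normalised fluorescence.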

[1] = Eterna round: R95, input ligand: FMN 200 uM
[2] = Eterna round: R95, input ligand: microRNA oligo, concentration not stated
[3] = Eterna round: R95, input ligand: none
[4] = input ligand: microRNA oligo, concentration not stated

Sequence	apparent KD of MS2 coat protein [1]	apparent KD of MS2 coat protein [2]	apparent KD of MS2 coat protein [3]	apparent KD of MS2 coat protein (input ligand: FMN 200 uM)	apparent KD of MS2 coat protein (input ligand: none)	apparent KD of MS2 coat protein [4]
AAGAAACAUGAGGAUCACCCAUGUGAGGAUAUGUAAAAGAAAAGAAAAGAAAGAAGAAACAGAAGGCACAAAGG [Mat - Mod of Hog D12] (puzzle: Exclusion 1)	82 nM	50.7 nM	45.2 nM			
AAGAAACAUGAGGAUCACCCAUGUGAGGAUAUGUAAAAUAAAAGAAAAGAAAGAAUAAACAGAAGGCACAAAGG [Mat - Mod of Hog D14] (puzzle: Exclusion 1)	69.9 nM	64.4 nM	52.6 nM			
AAGAAACAUGAGGAUCACCCAUGUGAGGAUAUGUAAAAUAAAAUAAAAUAAAUAAUAAACAGAAGGCACAAAGG [Mat - Mod of Hog D17] (puzzle: Exclusion 1)		58.6 nM				
AAGAAAGGUGACAUGGGCGACAUGAGGAUCACCCAUGUUACAAGCUUGUUGCUCGUCUUAUAAUUAACCCAUGUCAC [LRO Sensor-off var1-21 mod of Stov1-13-A1 by Brourd] (Eterna round: R97, puzzle: Sensor, turn-off variant 1)				16.1 nM	17.9 nM	
AAGAAGAAACAAGCUUUUUGCUCGUCUUAUAGUGACGCAACAUGAGGAUCACCCAUGUAUAGGAUGAGGGUGGAUAG [JR_SV3TOV2_Sub046] (puzzle: Sensor v3, turn-off variant 2)	76.9 nM	324 nM	72 nM			
AAGAAGAAGUAAGGAUAUGAAGAUUUGGUGAUAACAUGAGGAUCACCCAUGUGAAAACAAUAAAAUCAGAAGGUAUAAGAAGAA [AK ExNG2-2] (Eterna round: R96, puzzle: Exclusion NG 2)				57.6 nM	58 nM	37.3 nM
AAGAAGAUCGGAGGAUAUGGAGCUGAAACGGCGCUAGAAGGCCGUCUAGUGUAACAUGAGGAUCACCCAUGUAGGGACCUCUAA [EX ng 1 4.2] (Eterna round: R96, puzzle: Exclusion NG 1)				944 nM	558 nM	633 nM
AAGAAGCAAGGAUAUACAGAGGAGAGGAAAGCAAGAGGAGGACAUGAGGAUCACCCAUGUAGAAGGUGCAGAGA [JR_Exclu2_Sub019] (puzzle: Exclusion 2)	67.4 nM	68.8 nM	63.5 nM			
AAGAAUGAAGGAUAUACAUGAGGAUCACCCAUGUAAAAAAAAUUUUUUAGUUUUUCAUGUAGAAGGUCAAGAAG [JR_Exclusion3_Sub001] (puzzle: Exclusion 3)	47.9 nM	41.8 nM	43.6 nM			
AAGACACAUGAGGAUCACCCAUGUGAGGAUAUUUGAUGCGUACCUACAGGACUGCGAUAAAGAAGGCAUAAGGG [Eternabot (L2) Solution 80] (Eterna round: R97, puzzle: Exclusion 1)				50.3 nM	17.7 nM	
AAGAGCAUCGGAGGAUAUGGAGCUGAAACGGCGCUAGAAGGCCGUGCAGUGUAACAUGAGGAUCACCCAUGUAGGGACCUCUAA [EX ng 1 4] (Eterna round: R96, puzzle: Exclusion NG 1)				244 nM	104 nM	82.9 nM
AAGAGGUCAGGAUAUACAGGAAGAGAGAGAAGUAGAGGGUAACAUGAGGAUCACCCAUGUAGAAGGGACUAAGA [JR_Exclu2_Sub071] (puzzle: Exclusion 2)	67.9 nM	48.5 nM	63.1 nM			
AAGAGUGCAGGAUAUACUUGGUAGGGUAAGAUGAGUGAGUGACAUGAGGAUCACCCAUGUAGAAGGGCAGAGAG [JR_Exclu2_Sub056] (puzzle: Exclusion 2)		107 nM				
AAGAUACAUGAGGAUCACCCAUGUGAGGAUAUCAGCACGACCGUGAGGUCGAUAAGAAUGAGAAGGCACAAUGG [JL-ex1-4.51] (Eterna round: R97, puzzle: Exclusion 1)				103 nM	279 nM	
AAGAUACAUGAGGAUCACCCAUGUGAGGAUAUGAGCACGCCGGUGACGGUGAUAAGAAUCAGAAGGCACAAUGG [JL-ex1-4.32 salish99 mod] (Eterna round: R97, puzzle: Exclusion 1)				151 nM	327 nM	
AAGAUGCCAAAGGAUAUCGAAGGAGUGGCGCGGCGAGAAGGUUGGACAUGAGGAUCACCCAUGUGGUGGCUCCC [Usmaarri] (Eterna round: R97, puzzle: Exclusion 6)				703 nM	1070 nM	
AAGAUGUGAGGAUAUCACGAGAACGUCACACGGACGCUCUCUGAGAAGGCACAUGAGGAUCACCCAUGUCCAAC [EX4 A.21] (Eterna round: R97, puzzle: Exclusion 4)				207 nM	47.2 nM	
AAGCAGUCAGGAUAUCGUUAAUUUAGUUGUUUGUAUUAGUUCGAGAAGGGACAUGAGGAUCACCCAUGUAUGAA [Ex4 #42] (Eterna round: R97, puzzle: Exclusion 4)				51.5 nM	48.3 nM	

Sequence	apparent KD of MS2 coat protein [1]	apparent KD of MS2 coat protein [2]	apparent KD of MS2 coat protein [3]	apparent KD of MS2 coat protein (input ligand: FMN 200 uM)	apparent KD of MS2 coat protein (input ligand: none)	apparent KD of MS2 coat protein [4]
AAGGAUAGAGGAUAUACAUAGAUACAGAUUCGUGUAGUCCUACAUGAGGAUCACCCAUGUAGAAGGCUAUCCUA [Fiskers Ex 2 - 13] (puzzle: Exclusion 2)		11.3 nM				
AAGGGUACUUUCGGAACGACAUGAGGAUCACCCAUGUAUACUGAGGAUAUCUACUACUAAGGACGGGAGAAGGCAGUGUAAUGU [Ex NG3 #77] (Eterna round: R96, puzzle: Exclusion NG 3)						13.6 nM
AAGUACCGGUGAGGAUAUUUUUAAUAGAACUUUAUGAUAUACAUGAGGAUCACCCAUGUUACUUUAAAGAAGGCAUCGGAUAAA [Mat - Exclusion NG 2 - Mod of JL - D87] (Eterna round: R96, puzzle: Exclusion NG 2)						12 nM
AAGUACCGUCACGAUAGUGAUGGUACAACAAGCAAAUACACAUGAGGAUCACCCAUGUCCUCUUUUGCUCGUCUUGU [Sensor 3 - 0] (puzzle: Sensor v3, turn-off variant 2)	674 nM	236 nM	767 nM			
AAGUACCGUCACGAUAGUGAUGGUACAACAAGCAAGUGUACAUGAGGAUCACCCAUGUCCUCUUUUGCUCGUCUUAU [Sensor 3 - 95] (puzzle: Sensor v3, turn-off variant 2)	19.7 nM	16.9 nM	18.6 nM			
AAGUACCGUCACGAUAGUGAUGGUACAACAAGCAGUGACACAUGAGGAUCACCCAUGUCCUCAAUUGCUCGUCUUAU [Sensor 3 - 76] (puzzle: Sensor v3, turn-off variant 2)	179 nM	383 nM	156 nM			
AAGUACCGUCACGAUAGUGAUGGUACAGCAAGCAAAUGUACAUGAGGAUCACCCAUGUCCUCUUUUGCUCGUCUUAU [Sensor 3 - 98] (puzzle: Sensor v3, turn-off variant 2)	49.1 nM	31.1 nM	53.2 nM			
AAGUAGACGGUGAGGAUAUAGGUGGAAUGACCCAUUUAGAAGGUACAUGAGGAUCACCCAUGUGGGUAACGUCG [Brourd's EX4 #28] (Eterna round: R97, puzzle: Brourd's mod of Exclusion 4)				156 nM	166 nM	
AAGUAGGCAGGAUAUACAUGAGGAUCACCCAUGUGCCCAUGAAAGGUACUUUCGAAAGGUAGAAGGGCCUACAA [ChP 13.04.2015 #5] (puzzle: Exclusion 3)		14.6 nM				
AAGUGACAUGAGGAUCACCCAUGUCAGGAUAUGCGCCGCUUACGCCUAAGUGUAGGGAGCAGAAGGGACAUAGA [EX1 B.2] (Eterna round: R97, puzzle: Exclusion 1)				30.5 nM	25.7 nM	
AAGUUACAUGAGGAUCACCCAUGUGAGGAUAUGAGUCAGUCACGGUGACGUGGCUGACUCAGAAGGCACAAAGG [JL-ex1-4.37 salish99 mod] (Eterna round: R97, puzzle: Exclusion 1)				256 nM	98.1 nM	
AAUAACAAGCAGAUCCUAAACAUGAGGAUCACCCAUGUGUUCGUCUUGUAAAGUACUAUCACGAAAGUGAUAGUACA (Eterna round: R97, puzzle: Sensor, turn-off variant 1)				68.7 nM	66.2 nM	
AAUAACAAGCCGAUCCUUCACAUGAGGAUCACCCAUGUGUUCGUCUUGUAAAGUACUAUCACGAAAGUGAUAGUACA (Eterna round: R97, puzzle: Sensor, turn-off variant 1)				18 nM	19.1 nM	
AAUAACAGAGGAUAUACUAUUUUAUGUGUUUAUUGUUUUAAACAUGAGGAUCACCCAUGUAGAAGGCUGAAUAA [JMF 16] (puzzle: Exclusion 2)		26.8 nM				
AAUAACAGAGGAUAUACUAUUUUAUGUGUUUGUUAUUUUAAACAUGAGGAUCACCCAUGUAGAAGGCUGAUUAA [JMF 44] (Eterna round: R96, puzzle: Exclusion 2)				47.7 nM	42.7 nM	34.3 nM
AAUAACAGAGGAUAUACUAUUUUAUGUGUUUGUUAUUUUAAACAUGAGGAUCACCCAUGUAGAAGGCUGAUUAA [JMF 44] (puzzle: Exclusion 2)		38.5 nM				
AAUAACAGAGGAUAUACUAUUUUAUGUGUUUGUUAUUUUGAACAUGAGGAUCACCCAUGUAGAAGGCUGAUUGA [JMF 77] (puzzle: Exclusion 2)		41.1 nM				
AAUAACAGAGGAUAUACUAUUUUAUGUGUUUGUUGUUUUAAACAUGAGGAUCACCCAUGUAGAAGGCUGAAUAA [JMF 18] (puzzle: Exclusion 2)		20 nM				
